Blank lines part the entries; values can stand above or below the substance they belong to.
What was measured:
[1] = molecular target: Nluc-Y1R-eYFP_N1 C113^3.25A (human) (UniProt P25929); test: FRET or BRET; NanoBRET ligand binding: membrane preparations of HEK293 cells with Nluc-Y1/2R-eYFP, TAMRA-labeled peptide titrated, 10 min at room temperature, HBSS with 20 mM HEPES pH 7.4, 0.1% BSA; unspecific binding (excess unlabeled NPY or antagonist) subtracted; biphasic fit
[2] = molecular target: Nluc-Y2R-eYFP_N1 (wild-type neuropeptide Y2 receptor) (human) (UniProt P49146); test: as above
[3] = molecular target: AT1R-eYFP_N1 (wild-type angiotensin II type 1 receptor) (UniProt P30556); test: FRET or BRET; arrestin recruitment in live HEK293 cells: Nluc-arr3 (donor) and AT1R-eYFP (acceptor), stimulated with agonist peptide (angiotensin II; 0.01 nM to 10 µM)
[4] = molecular target: MOR-eYFP_pVitro2 (wild-type µ-type opioid receptor) (UniProt P35372); test: FRET or BRET; arrestin recruitment in live HEK293 cells: Nluc-arr3 (donor) and MOR-eYFP (acceptor), stimulated with β-endorphin (0.01 nM to 10 µM)
[5] = molecular target: FLAG-CRF1R-eGFP_N1 C188^3.29A (human (by the printed accession)) (UniProt P34998); test: FRET or BRET; arrestin recruitment in live HEK293 cells: Nluc-arr3 (donor) and FLAG-CRF1R-eGFP (acceptor), stimulated with CRF (up to 10 µM)
[6] = molecular target: FLAG-CRF1R-eGFP_N1 (wild-type corticotropin-releasing factor receptor 1, R2 isoform) (human (by the printed accession)) (UniProt P34998); test: as above
[7] = molecular target: MOR-eYFP_pVitro2 (wild-type µ-type opioid receptor) (UniProt P35372); test: FRET or BRET; arrestin recruitment in live HEK293 cells: Nluc-arr3 (donor) and MOR-eYFP (acceptor), stimulated with endomorphin-1 (0.01 nM to 10 µM)
[8] = molecular target: HA-Y2R-eYFP_N1 (wild-type neuropeptide Y2 receptor) (human) (UniProt P49146); test: FRET or BRET; arrestin recruitment in live HEK293 cells: Nluc-arr3 (donor) and receptor-eYFP (acceptor) co-transfected, stimulated with NPY (0.01 nM to 10 µM), HBSS with 20 mM HEPES pH 7.4, read 5, 10 and 15 min after stimulation
[9] = molecular target: Y1R-eYFP_N1 (wild-type neuropeptide Y1 receptor) (human) (UniProt P25929); test: as above
[10] = molecular target: Y1R-eYFP_N1 C113^3.25A (human) (UniProt P25929)
[11] = molecular target: Y1R-eYFP_N1 C198^45.50A (human) (UniProt P25929)
[12] = molecular target: HA-Y2R-eYFP_N1 C203^45.50A (human) (UniProt P49146)
[13] = molecular target: HA-Y2R-eYFP_N1 C123^3.25A (human) (UniProt P49146)

Nluc-tagged bovine arrestin3, sequence (P32120 whole entry): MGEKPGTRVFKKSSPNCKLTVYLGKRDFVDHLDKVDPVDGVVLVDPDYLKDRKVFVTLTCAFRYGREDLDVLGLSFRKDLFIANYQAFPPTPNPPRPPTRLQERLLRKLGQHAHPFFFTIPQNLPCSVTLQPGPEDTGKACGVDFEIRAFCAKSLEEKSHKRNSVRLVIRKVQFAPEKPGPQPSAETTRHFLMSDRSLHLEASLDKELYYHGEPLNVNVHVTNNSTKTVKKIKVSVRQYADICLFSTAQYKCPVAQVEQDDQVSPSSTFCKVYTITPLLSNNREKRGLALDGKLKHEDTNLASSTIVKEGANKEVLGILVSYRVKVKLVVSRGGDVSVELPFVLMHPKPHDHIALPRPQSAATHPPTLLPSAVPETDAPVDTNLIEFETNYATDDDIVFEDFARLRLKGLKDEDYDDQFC
AT1R-eYFP_N1 (wild-type angiotensin II type 1 receptor), sequence (P30556 whole entry): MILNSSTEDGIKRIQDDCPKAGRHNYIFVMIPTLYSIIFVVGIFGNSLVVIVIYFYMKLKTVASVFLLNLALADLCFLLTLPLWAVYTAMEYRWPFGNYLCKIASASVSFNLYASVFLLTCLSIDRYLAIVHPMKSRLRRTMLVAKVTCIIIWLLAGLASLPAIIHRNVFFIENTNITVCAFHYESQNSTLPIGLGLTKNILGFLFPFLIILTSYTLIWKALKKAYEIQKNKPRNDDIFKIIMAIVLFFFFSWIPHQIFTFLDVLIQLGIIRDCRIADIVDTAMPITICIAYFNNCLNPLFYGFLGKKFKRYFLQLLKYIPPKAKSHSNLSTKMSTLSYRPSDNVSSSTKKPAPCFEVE
Nluc-Y1R-eYFP_N1 C113^3.25A (human), sequence (P25929 whole entry C113A): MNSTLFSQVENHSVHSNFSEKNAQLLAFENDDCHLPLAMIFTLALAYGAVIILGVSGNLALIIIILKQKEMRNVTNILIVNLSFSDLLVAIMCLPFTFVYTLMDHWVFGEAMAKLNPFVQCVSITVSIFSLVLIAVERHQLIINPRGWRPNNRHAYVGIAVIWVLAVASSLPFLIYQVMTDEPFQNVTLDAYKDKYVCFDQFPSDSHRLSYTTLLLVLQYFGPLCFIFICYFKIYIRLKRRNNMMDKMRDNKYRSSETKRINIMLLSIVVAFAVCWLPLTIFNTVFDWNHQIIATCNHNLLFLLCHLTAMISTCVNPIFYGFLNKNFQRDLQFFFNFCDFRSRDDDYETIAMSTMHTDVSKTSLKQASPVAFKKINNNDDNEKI
Y1R-eYFP_N1 C113^3.25A (human), sequence (P25929 whole entry C113A): as above
FLAG-CRF1R-eGFP_N1 (wild-type corticotropin-releasing factor receptor 1, R2 isoform) (human (by the printed accession)), sequence (P34998 24-415): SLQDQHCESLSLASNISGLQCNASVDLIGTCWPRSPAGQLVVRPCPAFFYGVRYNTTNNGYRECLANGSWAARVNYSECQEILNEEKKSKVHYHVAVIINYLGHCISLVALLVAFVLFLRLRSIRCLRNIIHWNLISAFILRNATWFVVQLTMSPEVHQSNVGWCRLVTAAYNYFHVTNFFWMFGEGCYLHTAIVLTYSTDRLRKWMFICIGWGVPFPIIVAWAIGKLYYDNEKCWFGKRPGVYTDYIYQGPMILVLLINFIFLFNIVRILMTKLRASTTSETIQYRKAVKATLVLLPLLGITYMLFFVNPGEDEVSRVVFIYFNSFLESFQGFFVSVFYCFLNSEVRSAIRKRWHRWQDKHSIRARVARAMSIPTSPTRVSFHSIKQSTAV
FLAG-CRF1R-eGFP_N1 C188^3.29A (human (by the printed accession)), sequence (P34998 24-415 C188A): as the sequence (P34998 24-415) above, with C165A counted along it
Y1R-eYFP_N1 (wild-type neuropeptide Y1 receptor) (human), sequence (P25929 whole entry): as the sequence (P25929 whole entry C113A) above, with A113C counted along it
Y1R-eYFP_N1 C198^45.50A (human), sequence (P25929 whole entry C198A): as the sequence (P25929 whole entry C113A) above, with A113C, C198A counted along it

fold shift in Kd against wild-type Y1R [1]: 7 fold | Kd of the high-affinity state [2]: 2.3 nM | Kd of the low-affinity state [2]: 267 nM
Substance: K^18-TAMRA-NPY (peptide)

EC50 of the agonist for arrestin3 recruitment [3]: 3.6 nM | EC50 of the agonist β-endorphin for arrestin3 recruitment [4]: > 3000 nM | fold shift in the agonist's EC50 for arrestin3 recruitment against wild-type CRF1R [5]: 8 fold | EC50 of the agonist CRF for arrestin3 recruitment [6]: 37 nM | EC50 of the agonist endomorphin-1 for arrestin3 recruitment [7]: 375 nM | EC50 of the agonist NPY for arrestin3 recruitment [8]: 96 nM | EC50 of the agonist NPY for arrestin3 recruitment [9]: 8 nM
Substance: Nluc-tagged bovine arrestin3 (from UniProt P32120 1-420) (natural protein)

inositol monophosphate accumulation via chimeric G-protein: shift of EC50 against wild-type Y1R (41% loss of Emax) [10]: 26 fold | inositol monophosphate accumulation via chimeric G-protein: shift of EC50 against wild-type Y1R (57% loss of Emax) [11]: 50 fold | cAMP reporter gene assay (Gi/o pathway): shift of the EC50 of NPY against wild-type Y2R; full activation at 10 µM NPY [12]: 10000 fold | cAMP reporter gene assay (Gi/o pathway): shift of the EC50 of NPY against wild-type Y2R; full activation at 10 µM NPY [13]: 10000 fold
Substance: neuropeptide Y (NPY) (from UniProt P01303 29-64)

Source: publication PMC10419011
